Laboratory results taken from patent US20230322893A1, “CD47 BINDER AND LIPOSOME COMPLEX FOR CANCER TREATMENT” (priority 2020, published 2023).

B1: NT5M (hdNT-2): human mitochondrial 5′-nucleotidase (SEQ ID NO: 32) (protein)
chain: MGGRALRVLVDMDGVLADFEGGFLRKFRARFPDQPFIALEDRRGFWVSEQYGRLRPGLSEKAISIWESKNFFFELEPLPGAVEAVKEMASLQNTDVFICTSPIKMFKYCPYEKYAWVEKYFGPDFLEQIVLTRDKTVVSADLLIDDRPDITGAEPTPSWEHVLFTACHNQHLQLQPPRRRLHSWADDWKAILDSKRPC
modifications: NT5M
B2: SV4: binder of SEQ ID NO: 2; SV1 with lysines at the 11th and 104th positions substituted with leucine (protein)
chain: MEEELQIIQPDLSVSVAAGESAILHCTITSLFPVGPIQWFRGAGPARVLIYNQRQGPFPRVTTVSETTKRENMDFSISISNITPADAGTYYCIKFRKGSPDTEFLSGAGTELSVRAKPS
modifications: CD47 binder SV4
B3: SV4-DSPE: DSPE-conjugated form of SV4 (NHS-activated DSPE-PEG2000 with SV4 protein) (conjugate)
chain: B2 chain
B4: T001: Thymidylate 5′-phosphohydrolase derived from bacteriophage PBS2, gene sequence optimized (SEQ ID NO: 3); final drug form mRNA (protein)
chain: MVFSIKEPFSIVTDCDEVLTDISPLWVHKIQQNADYFGKYFDLSKLEGLEFGTFEHYQTVLSRPEFHLNKWLRKENLVLSDEEEKELFERFYSLYDNDEFYEDCMPTKMCEGIYKLSLQKFVDKIYVVTRTSEGTKEGKRKFIETFLNSNKVEIIFVGKNEKKSDYIKNLKNVKMIVEDELSNINDIVENCNDGFEEVDTYIPSTGYNNKDIDGFNENLMKKGFNAVPYVIIERPETEEKAV
modifications: T001
notes: final drug form mRNA
B5: hdNT-1: Human cytosolic 5′deoxyribonucleotidase (protein, UniProt Q8TCD5 1-201, looked up)
5'(3')-deoxyribonucleotidase, …: MARSVRVLVDMDGVLADFEAGLLRGFRRRFPEEPHVPLEQRRGFLAREQYRALRPDLADKVASVYEAPGFFLDLEPIPGALDAVREMNDLPDTQVFICTSPLLKYHHCVGEKYRWVEQHLGPQFVERIILTRDKTVVLGDLLIDDKDTVRGQEETPSWEHILFTCCHNRHLVLPPTRRRLLSWSDNWREILDSKRGAAQRE
B6: mdNT-1: Murine cytosolic 5′deoxyribnucleotidase (protein, UniProt Q9JM14 1-200, looked up)
5'(3')-deoxyribonucleotidase, …: MAVKRPVRVLVDMDGVLADFESGLLQGFRRRFPEEPHVPLEQRRGFLANEQYGALRPDLAEKVASVYESPGFFLNLEPIPGALDALREMNDMKDTEVFICTTPLLKYDHCVGEKYRWVEQNLGPEFVERIILTRDKTVVMGDLLIDDKDNIQGLEETPSWEHILFTCCHNQHLALPPTRRRLLSWSDNWRGIIESKRASL

How the values were obtained:
dGMP = details: read-out: Preferred Substrate (Km), dGMP; cited from earlier work
dTMP [1] = details: read-out: Preferred Substrate (Km), dTMP; cited from earlier work
dUMP = details: read-out: Preferred Substrate (Km), dUMP; cited from earlier work
dTMP [2] = test: 5′-nucleotidase preferred substrate Km, dTMP; assay type: biochemical; details: according to Table 4
recombinant CD47 protein = recombinant CD47 protein (Homo sapiens, UniProt Q08722); test: SPR, CD47 conjugated to CM5 chip by EDC-NHS; assay type: binding
Experimental: Specifically, the recombinant CD47 protein was conjugated to the surface of the CM5 chip by a target SPR reaction of 250 RU through an EDC-NHS reaction to be used, and for HBS-P, the sensogram obtained through a process of association for 3 minutes and dissociation for 10 minutes at a flow rate of 30 µL/minutes was analyzed with the BiaEvaluation software using a 1:1 binding model and global fitting.

[3] = system: colon cancer cell line HCT-116; test: Trypan blue assay, cell viability and cell growth inhibition; assay type: cell-based; details: HCT-116, 1.25 µg mRNA, 24 hours
Experimental: T001 is more specific to the nucleic acid T due to its structural difference from NT5M. Therefore, nucleic acid imbalance due to the loss of dTTP rather than the overall loss of nucleic acid may have a greater effect on cancer cell metabolism and thereby inhibit the growth of cancer cells. […] Each mRNA was transfected into the colon cancer cell line HCT-116, and 24 hours thereafter, Trypan blue assay was performed and the results of cell viability and cell growth inhibition on HCT-116 are shown in FIG. 13. The specific experimental method is as follows.
HCT-116 cells were transfected with 1.25 µg each of non-mature form NT5M, mature form NT5M, and CT mRNA. After 24 hours, the resultants were each treated with trypsin and the cells were harvested using a centrifuge. After resuspending the harvested cells with 1× DPBS, a certain amount of cells were mixed with trypan blue reagent at a 1:1 ratio. After incubation for 2 minutes at room temperature (RT), the number of cells was counted using a hemocytometer. After obtaining the number of cells stained and unstained with the trypan blue reagent, the number of viable and non-viable cells was obtained, and then divided by the total number of cells to obtain the viability. Each experiment was repeated three or more times to evaluate the significance.

dAMP = details: read-out: Preferred Substrate (Km), dAMP; cited from earlier work
[4] = CM5 chip, CD47 250 RU, 30 µL/minutes

Chain of recombinant CD47 protein (Q08722 19-323): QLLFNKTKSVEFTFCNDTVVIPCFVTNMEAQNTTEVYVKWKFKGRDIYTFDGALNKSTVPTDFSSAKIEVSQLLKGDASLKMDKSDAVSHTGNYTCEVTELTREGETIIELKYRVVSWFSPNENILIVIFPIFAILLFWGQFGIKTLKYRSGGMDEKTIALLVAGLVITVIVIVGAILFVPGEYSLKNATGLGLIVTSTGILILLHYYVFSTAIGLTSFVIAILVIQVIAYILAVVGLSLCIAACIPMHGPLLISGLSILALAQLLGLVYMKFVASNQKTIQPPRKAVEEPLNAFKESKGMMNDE

Molecule	Km (dGMP) [µM]	Km (dTMP [1]) [µM]	Km (dUMP) [µM]	affinity for dTMP lower than T001 (dTMP [2]) [times]	binding activity when conjugated with DSPE and when inserted into liposomes (recombinant CD47 protein)	ka (recombinant CD47 protein; [4]) [M⁻¹ s⁻¹]	kd (recombinant CD47 protein; [4]) [s⁻¹]	effect on cells (cell viability and cell growth inhibition) [3]	Km (dAMP) [µM]
B1	90	300	160	30	–	–	–	–	–
B2	–	–	–	–	maintained within the error range	164000	0.000275	–	–
B3	–	–	–	–	–	–	0.000256	–	–
B4	700	10	800	–	–	–	–	greater than that of human NT5M	–
B5	3300	1500	1500	–	–	–	–	–	3000
B6	1200	1400	800	–	–	–	–	–	1000
